Target: T1, TetR class C (tetracycline repressor, pSC101) (Escherichia coli C600 (plasmid pSC101), UniProt P03039 P03039:1-219)
T1 sequence: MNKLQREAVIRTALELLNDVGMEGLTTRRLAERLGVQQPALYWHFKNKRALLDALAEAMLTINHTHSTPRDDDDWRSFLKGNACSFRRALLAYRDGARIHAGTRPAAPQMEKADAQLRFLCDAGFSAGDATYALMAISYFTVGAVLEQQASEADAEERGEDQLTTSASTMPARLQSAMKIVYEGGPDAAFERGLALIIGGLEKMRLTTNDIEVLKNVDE
Experiment: immunochromatographic strip; test line 5218 without tetracycline, falling to 399 at 100 ppb tetracycline in milk; DNA immobilised via avidin
Conditions: tags: untagged; detected via anti-TetR serum and gold-labelled A-protein in strip assay; chain copies: 2; label: 5'-biotin on teta-40; 31 bp duplex with 5' single-strand poly-T tail
Method: 200 μl of milk are incubated in the presence of the lyophilised reagents and prepared as in Point 1.1.2.2. After two minutes of incubation at 37° C., the analysis strip described at 1.3 is immersed in the solution. The final interpretation is carried out after 8 minutes of incubation by means of an optical strip reader available from 77-Elektronika (Budapest, Hungary).

B1: tetA operator of pSC101 (teta-40/teta-30) (dsDNA)
DNA 1: TTTTTTTTTTTAATGCGGTAGTTTATCACAGTTAATTGCTAA
DNA 2: TTAGCAATTAACTGTGATAAACTACCGCATT
  binding result: binds

— US20050130152, “Method for performing in vitro diagnosis using gene regulation mechanisms and corresponding diagnosis kit” (UNISENSOR S.A., published 2005)
